In experiment [1] the target is T1, tau antigens from human AD brain, S1(p) fraction (human, UniProt P10636 2-758, phosphorylated; sites not listed for this fraction).
T1 construct: Brain-derived; isoform mix; also called AD-S1(p); AD s1(p)
The experiment is described as follows: fluid phase MSD ELISA: inhibition of tau antigen capture. On the procedure:
B: The samples were incubated on MSD plates coated with AD-P3 (1 μg/ml) for 2 hours followed by wash and detection of captured Tau antigens using sulfo tagged anti-total TauG antibodies.
A general note: An ELISA detects its analyte on a solid surface through an enzyme-linked reagent.

Experiment [2] addresses T2, pathological hyperphosphorylated tau from human Alzheimer's disease brain, sarkosyl-insoluble P3 fraction (human, UniProt P10636 2-758, hyperphosphorylated; phosphoserine at 396 (other sites not listed)).
T2 construct: Brain-derived mixture of tau isoforms (bands at 54, 64, 69 and 74 kDa); also called AD-P3; AD P3
As to the kind of experiment: MSD ELISA on immobilised P3 tau; ratio of binding to AD over healthy control at saturation.

T1 sequence (P10636 other isoform, or with tags, fused parts or gaps limits assumed): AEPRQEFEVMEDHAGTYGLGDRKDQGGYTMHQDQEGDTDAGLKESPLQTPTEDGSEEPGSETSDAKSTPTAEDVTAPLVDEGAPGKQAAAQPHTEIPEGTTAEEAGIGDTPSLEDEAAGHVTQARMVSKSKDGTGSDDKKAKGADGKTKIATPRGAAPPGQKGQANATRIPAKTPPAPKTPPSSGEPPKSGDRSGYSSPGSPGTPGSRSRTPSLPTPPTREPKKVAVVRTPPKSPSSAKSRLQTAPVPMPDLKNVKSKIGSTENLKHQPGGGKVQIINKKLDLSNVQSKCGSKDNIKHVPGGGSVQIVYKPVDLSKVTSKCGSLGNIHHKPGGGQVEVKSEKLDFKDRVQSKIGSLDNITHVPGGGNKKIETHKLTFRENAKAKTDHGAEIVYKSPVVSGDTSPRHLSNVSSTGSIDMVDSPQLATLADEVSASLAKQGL
T2 sequence (P10636 other isoform, or with tags, fused parts or gaps limits assumed): as above

B1: Antibody D1.2 (antibody, mouse IgG2b, kappa, V domains shown)
VH: QVQLQQSGAELVRPGASVTLSCKASGNTFTDYEIHWVKQTPVHGLEWIGAIDPETGNTAYNQKFKGKARLTADKSSSTAYMELRSLTSEDSAVYYCTRSRGFDYWGQGTTLTVSS
VL: DVMMTQTPLSLPVSLGDQASISCRSSQSLVHSNGNTYLHWHLQKPGQSPKFLIYKVSNRFSGVPDRFSGSGSGTDFTLKISRVEAEDLGVYFCSQSTHVPFTFGSGTKLEIKR
notes: Mouse monoclonal; also called mD1.2; mouse D1.2
As usually defined, the IC50 is the midpoint of a concentration-inhibition curve. The low end stands for greater potency in that assay, the high end for weaker potency in that assay. Molecule B1 came in with an IC50 in experiment [1] of 503 nM.

B2: Antibody C10-2 (murine) (antibody, mouse IgG1, kappa, V domains shown)
VH: QVQLQQSDAELVKPGASVKISCKASGYTFTDRTIHWVKQRPEQGLEWIGYIYPGDGSTKYNENFKGKATLTADKSSSTAYMQLNSLTSEDSAVYFCARRGAMDYWGQGTSVTVSS
VL: DVQMIQSPSSLSASLGDIVTMTCQASQGTSINLNWFQQKPGKAPKLLIYGASNLEDGVPSRFSGSRYGTDFTLTISSLEDEDMATYFCLQHTYLPFTFGSGTKLEIKR
notes: Mouse monoclonal from hybridoma; also called mC10-2; mouse C10-2
In the case of B2, in experiment [1], the IC50 came to 11 nM.

B3: IPN002 (antibody, V domains shown)
VH: EVHLVESGGALVKPGGSLKLSCAASGFSFSKYGMSWVRQTPDKRLEWVATISSSGSRTYYPDSVKGQFTISRDNAKNTLYLQMSSLKSEDTAMYYCSISWDGAMDYWGQGTSVTVSS
VL: DVLMTQTPLSLPVSLGDQASISCKSSQSIVHSNGNTYLEWYLQKPGQSPKLLVYKVSNRFSGVPDRFSGSGSGTDFTLKISRVEAEDLGTYYCFQGSLVPWAFGGGTKLEIK
Regarding B3, the AD/ctrl in experiment [2] amounted to 3 fold.

(Values after patent US20170015738A1 (H LUNDBECK A S, published 2017).)
